Assays:
[1] = biological target: biotinylated PTRAMP-CSS heterodimer: PfPTRAMP (42-309) with C-terminal Avitag, with PfCSS (20-290) (Plasmodium falciparum); assay: BLI; biotinylated PfPTRAMP or PTRAMP-CSS immobilised on High Precision Streptavidin (SAX) biosensors; twofold dilution series of anti-PfPTRAMP nanobody; 25 °C; kinetics buffer (PBS pH 7.4, 0.1% BSA, 0.02% Tween-20); 1:1 model; mean of two independent experiments
[2] = biological target: PfPTRAMP (42-309) with a C-terminal Avitag, biotinylated (Plasmodium falciparum); assay: as above

B1: anti-PfPTRAMP nanobody H8 (VHH)
VHH: QVQLQESGGGLVQPGGSLRLSCAASGFTFSSYWMYWVRQAPGKGLEWVSAINTGGGSTAYADSVKGRFTISRDNAKNTLYLQMNSLKSDDTAVYYCVKARGSSWSDRVFDYWGQGTQVTVSS
With B1 as the binder, how does the Kd [1] read?
Its Kd is 410 nM.

And the koff [1]?
The koff was 0.25 s⁻¹.

What about the kon [1] of the same binder?
Its kon is 790000 M⁻¹ s⁻¹.

What about the Kd [2] of the same binder?
The Kd was 400 nM.

What about the koff [2] of the same binder?
The koff was 0.25 s⁻¹.

What about the kon [2] of the same binder?
Its kon is 620000 M⁻¹ s⁻¹.

B2: anti-PfPTRAMP nanobody H10 (VHH)
VHH: QVQLQESGGGLVQPGGSLRLSCAASGFTFDNYWMYWVRQAPGKGLEWVSAINTVGSHTYYADSVKGRFTISRDNAKNTLYLQMNSLKSEDTAVYYCAKGPWGFGTSGWGEMDYWGKGTQVTVSS
Which Kd [1] does the source give for B2 here?
The Kd was 390 nM.

What about the koff [1] of the same binder?
The koff was 0.077 s⁻¹.

And the kon [1]?
Its kon is 200000 M⁻¹ s⁻¹.

And the Kd [2]?
The Kd was 530 nM.

And the koff [2]?
Its koff is 0.088 s⁻¹.

What about the kon [2] of the same binder?
The kon was 170000 M⁻¹ s⁻¹.

From article PMC9712106
